Our source for the Kd values is publication PMC8625556.

The subject of the data set is GST:p33ΔTMD (Citrus tristeza virus (isolate T36)). The data set is described as follows: EMSA.

The substance LMT1 full length (1-780) displayed a Kd of 122 nM.

The Kd is the constant that tells how readily two partners part at equilibrium. High values mean lower affinity, low ones higher affinity.
